Assay results reported in article PMC9552169, “Mutations Increasing Cofactor Affinity, Improve Stability and Activity of a Baeyer–Villiger Monooxygenase” (ACS Catalysis, 2022).

System: O=C1CCCCC1
Test: purified protein
Settings: table prints only 'substrate', cyclohexanone taken from the standard assay (Figure 2: 100 μM NADPH, 50 mM TrisHCl pH 8.5)

## CHMOAcineto (CHMOwt) (Acinetobacter johnsonii)
  Km: 6.7 ± 2.0 µM
